Source: paper PMC7144908

What was measured:
[1] = biological target: T1, SV40 large T antigen (Tag) (Simian virus 40, UniProt P03070 1-708); experiment: EMSA
[2] = biological target: SV40 large T antigen (Tag);Replication protein A (RPA) (Simian virus 40;human, UniProt P03070;P27694;P15927;P35244 1-708;1-616;1-270;1-121, |); experiment: EMSA
[3] = biological target: T1, SV40 large T antigen (Tag); experiment: DSF
[4] = biological target: T1, SV40 large T antigen (Tag); experiment: EMSA; remark: listed apart in the source
[5] = biological target: T1, SV40 large T antigen (Tag); experiment: EMSA; remark: listed apart in the source
[6] = biological target: Replication protein A (RPA) (human, UniProt P27694;P15927;P35244 1-616;1-270;1-121); experiment: EMSA
[7] = biological target: T1, SV40 large T antigen (Tag); experiment: DSF; remark: listed apart in the source
[8] = biological target: T1, SV40 large T antigen (Tag); experiment: EMSA; remark: listed apart in the source
[9] = biological target: T1, SV40 large T antigen (Tag); experiment: DSF; remark: listed apart in the source
[10] = biological target: T1, SV40 large T antigen (Tag); experiment: DSF; remark: listed apart in the source
[11] = biological target: T1, SV40 large T antigen (Tag); experiment: EMSA; remark: listed apart in the source
[12] = biological target: T1, SV40 large T antigen (Tag); experiment: EMSA; remark: listed apart in the source
[13] = biological target: T1, SV40 large T antigen (Tag); experiment: EMSA; remark: listed apart in the source
[14] = biological target: T1, SV40 large T antigen (Tag); experiment: AUC

T1 sequence (P03070 whole entry): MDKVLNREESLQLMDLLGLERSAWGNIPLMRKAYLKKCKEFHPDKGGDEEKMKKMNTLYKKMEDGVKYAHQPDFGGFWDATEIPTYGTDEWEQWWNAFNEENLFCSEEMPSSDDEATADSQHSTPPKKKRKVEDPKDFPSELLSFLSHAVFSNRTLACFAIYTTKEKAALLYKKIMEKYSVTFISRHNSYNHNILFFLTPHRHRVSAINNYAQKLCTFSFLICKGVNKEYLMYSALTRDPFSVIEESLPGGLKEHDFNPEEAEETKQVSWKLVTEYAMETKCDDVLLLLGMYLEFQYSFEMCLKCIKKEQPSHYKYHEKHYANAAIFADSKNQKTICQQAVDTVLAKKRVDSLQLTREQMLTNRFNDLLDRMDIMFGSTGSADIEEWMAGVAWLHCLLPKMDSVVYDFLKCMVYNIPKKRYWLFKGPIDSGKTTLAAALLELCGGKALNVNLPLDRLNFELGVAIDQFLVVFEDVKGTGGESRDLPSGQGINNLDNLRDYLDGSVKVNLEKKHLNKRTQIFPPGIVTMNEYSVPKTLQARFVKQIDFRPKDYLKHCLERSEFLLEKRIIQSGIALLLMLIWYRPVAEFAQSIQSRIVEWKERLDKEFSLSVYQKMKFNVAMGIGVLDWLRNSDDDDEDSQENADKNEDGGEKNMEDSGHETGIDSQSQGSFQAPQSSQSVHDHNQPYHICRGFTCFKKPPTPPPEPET
Sequence of Replication protein A (RPA) (P27694 whole entry, chain 1 of 3): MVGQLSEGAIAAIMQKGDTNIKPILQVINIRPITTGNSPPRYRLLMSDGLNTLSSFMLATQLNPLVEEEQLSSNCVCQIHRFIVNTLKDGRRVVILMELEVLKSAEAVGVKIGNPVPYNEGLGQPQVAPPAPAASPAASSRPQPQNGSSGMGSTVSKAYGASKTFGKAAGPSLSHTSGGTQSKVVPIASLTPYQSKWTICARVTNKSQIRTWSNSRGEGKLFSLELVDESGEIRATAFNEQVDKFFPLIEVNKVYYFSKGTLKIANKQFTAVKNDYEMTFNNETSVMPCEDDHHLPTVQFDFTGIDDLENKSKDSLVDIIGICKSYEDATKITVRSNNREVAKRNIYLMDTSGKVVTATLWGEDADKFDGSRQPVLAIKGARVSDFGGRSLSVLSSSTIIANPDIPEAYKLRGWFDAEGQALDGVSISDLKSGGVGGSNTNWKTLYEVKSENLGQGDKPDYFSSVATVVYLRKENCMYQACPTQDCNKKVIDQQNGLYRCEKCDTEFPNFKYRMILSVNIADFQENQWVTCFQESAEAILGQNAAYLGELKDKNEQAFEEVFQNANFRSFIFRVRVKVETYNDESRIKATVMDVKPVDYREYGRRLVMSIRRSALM
Sequence of Replication protein A (RPA) (P15927 whole entry, chain 2 of 3): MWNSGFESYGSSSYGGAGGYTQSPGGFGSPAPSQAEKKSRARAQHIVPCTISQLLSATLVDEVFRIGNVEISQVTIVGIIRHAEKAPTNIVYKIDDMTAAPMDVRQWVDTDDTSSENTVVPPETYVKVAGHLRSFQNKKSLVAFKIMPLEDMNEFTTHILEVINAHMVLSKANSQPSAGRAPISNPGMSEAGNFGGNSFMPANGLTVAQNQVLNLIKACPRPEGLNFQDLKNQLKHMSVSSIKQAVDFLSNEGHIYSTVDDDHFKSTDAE
Sequence of Replication protein A (RPA) (P35244 whole entry, chain 3 of 3): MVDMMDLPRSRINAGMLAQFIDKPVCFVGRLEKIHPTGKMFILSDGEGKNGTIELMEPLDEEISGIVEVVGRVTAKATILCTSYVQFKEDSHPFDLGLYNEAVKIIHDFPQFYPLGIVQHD
Sequence of SV40 large T antigen (Tag);Replication protein A (RPA) (P03070 whole entry, chain 1 of 4): as the sequence (P03070 whole entry) above
Sequence of SV40 large T antigen (Tag);Replication protein A (RPA) (P27694 whole entry, chain 2 of 4): as the sequence (P27694 whole entry, chain 1 of 3) above
Sequence of SV40 large T antigen (Tag);Replication protein A (RPA) (P15927 whole entry, chain 3 of 4): as the sequence (P15927 whole entry, chain 2 of 3) above
Sequence of SV40 large T antigen (Tag);Replication protein A (RPA) (P35244 whole entry, chain 4 of 4): as the sequence (P35244 whole entry, chain 3 of 3) above

Binder	Kd [1]	Kd [3]	Kd [7]	Kd [13]	other results
ssDNA(GAPDH) (ssDNA) DNA: CGACAGTCAGCCGCATCTTCTTTTGCGTCGCCAGCCGAGCCCTATAGTGAGTCGTAT	40 ± 10 nM	10 ± 1 nM			binding result [2]: binds; Kd [4]: ~110 nM; Kd [5]: 80 ± 40 nM; Kd [6]: ~10 nM
dsDNA(GAPDH) (dsDNA) DNA 1: CGACAGTCAGCCGCATCTTCTTTTGCGTCGCCAGCCGAGCCCTATAGTGAGTCGTAT DNA 2: ATACGACTCACTATAGGGCTCGGCTGGCGACGCAAAAGAAGATGCGGCTGACTGTCG			5800 ± 4000 nM		
ssDNA(Site2) (ssDNA) DNA: GCTCAGAGGCCGAGGCGGCCTCGGCCTCTGCATAAATAAAAAAAATTAGTCAGCCAT	70 ± 8 nM	50 ± 10 nM	40 ± 7 nM	40 ± 5 nM	Kd [8]: 40 ± 10 nM; Kd [9]: 200 ± 60 nM; Kd [10]: 100 ± 30 nM; Kd [11]: 70 ± 10 nM; Kd [12]: 80 ± 30 nM
dsDNA(Site2) (dsDNA) DNA 1: GCTCAGAGGCCGAGGCGGCCTCGGCCTCTGCATAAATAAAAAAAATTAGTCAGCCAT DNA 2: ATGGCTGACTAATTTTTTTTATTTATGCAGAGGCCGAGGCCGCCTCGGCCTCTGAGC	220 ± 130 nM		120 ± 110 nM	100 ± 50 nM	
GGTCGACTCTAGAGGATCAGATCTGGTACCTCTAGACTCGAGGCATGC (ssDNA) [ssDNA (gap) 48-mer]					binding result [14]: binds
